# In US20220125891:
# T1: human Regnase-1 of Example 15 (full length, GST tag cleaved off, BirA recognition sequence on the C-terminal side, biotinylated)
# T1 sequence (Q5D1E8 1-599, looked up): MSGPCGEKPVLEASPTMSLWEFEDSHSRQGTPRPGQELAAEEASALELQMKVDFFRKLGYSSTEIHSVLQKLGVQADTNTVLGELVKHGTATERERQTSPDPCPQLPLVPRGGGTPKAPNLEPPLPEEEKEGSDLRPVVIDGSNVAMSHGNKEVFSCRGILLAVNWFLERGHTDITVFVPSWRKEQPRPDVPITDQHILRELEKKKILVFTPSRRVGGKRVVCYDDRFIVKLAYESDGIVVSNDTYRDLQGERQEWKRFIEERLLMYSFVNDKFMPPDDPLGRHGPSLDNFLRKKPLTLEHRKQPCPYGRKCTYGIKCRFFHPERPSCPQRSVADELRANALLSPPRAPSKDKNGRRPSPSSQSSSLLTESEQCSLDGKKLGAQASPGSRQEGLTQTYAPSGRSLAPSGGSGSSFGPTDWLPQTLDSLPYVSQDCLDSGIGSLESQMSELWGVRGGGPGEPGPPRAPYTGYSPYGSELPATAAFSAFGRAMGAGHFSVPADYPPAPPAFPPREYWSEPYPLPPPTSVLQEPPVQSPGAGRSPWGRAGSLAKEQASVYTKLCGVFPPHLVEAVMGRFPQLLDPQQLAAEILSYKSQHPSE
# Biological target: T1, human Regnase-1 of Example 15 (full …)
row,Protein,phosphorylation detected by Western blotting
1,TBK1 (manufactured by SignalChem) (protein) MQSTSNHLWLLSDILGQGATANVFRGRHKKTGDLFAIKVFNNISFLRPVDVQMREFEVLKKLNHKNIVKLFAIEEETTTRHKVLIMEFCPCGSLYTVLEEPSNAYGLPESEFLIVLRDVVGGMNHLRENGIVHRDIKPGNIMRVIGEDGQSVYKLTDFGAARELEDDEQFVSLYGTEEYLHPDMYERAVLRKDHQKKYGATVDLWSIGVTFYHAATGSLPFRPFEGPRRNKEVMYKIITGKPSGAISGVQKAENGPIDWSGDMPVSCSLSRGLQVLLTPVLANILEADQEKCWGFDQFFAETSDILHRMVIHVFSLQQMTAHKIYIHSYNTATIFHELVYKQTKIISSNQELIYEGRRLVLEPGRLAQHFPKTTEENPIFVVSREPLNTIGLIYEKISLPKVHPRYDLDGDASMAKAITGVVCYACRIASTLLLYQELMRKGIRWLIELIKDDYNETVHKKTEVVITLDFCIRNIEKTVKVYEKLMKINLEAAELGEISDIHTKLLRLSSSQGTIETSLQDIDSRLSPGGSLADAWAHQEGTHPKDRNVEKLQVLLNCMTEIYYQFKKDKAERRLAYNEEQIHKFDKQKLYYHATKAMTHFTDECVKKYEAFLNKSEEWIRKMLHLRKQLLSLTNQCFDIEEEVSKYQEYTNELQETLPQKMFTASSGIKHTMTPIYPSSNTLVEMTLGMKKLKEEMEGVVKELAENNHILERFGSLTMDGGLRNVDCL,it was confirmed that human Regnase-1 is phosphorylated by IKKβ and TBK1
2,IKKβ (manufactured by SignalChem) (protein) MSWSPSLTTQTCGAWEMKERLGTGGFGNVIRWHNQETGEQIAIKQCRQELSPRNRERWCLEIQIMRRLTHPNVVAARDVPEGMQNLAPNDLPLLAMEYCQGGDLRKYLNQFENCCGLREGAILTLLSDIASALRYLHENRIIHRDLKPENIVLQQGEQRLIHKIIDLGYAKELDQGSLCTSFVGTLQYLAPELLEQQKYTVTVDYWSFGTLAFECITGFRPFLPNWQPVQWHSKVRQKSEVDIVVSEDLNGTVKFSSSLPYPNNLNSVLAERLEKWLQLMLMWHPRQRGTDPTYGPNGCFKALDDILNLKLVHILNMVTGTIHTYPVTEDESLQSLKARIQQDTGIPEEDQELLQEAGLALIPDKPATQCISDGKLNEGHTLDMDLVFLFDNSKITYETQISPRPQPESVSCILQEPKRNLAFFQLRKVWGQVWHSIQTLKEDCNRLQQGQRAAMMNLLRNNSCLSKMKNSMASMSQQLKAKLDFFKTSIQIDLEKYSEQTEFGITSDKLLLAWREMEQAVELCGRENEVKLLVERMMALQTDIVDLQRSPMGRKQGGTLDDLEEQARELYRRLREKPRDQRTEGDSQEMVRLLLQAIQSFEKKVRVIYTQLSKTVVCKQKALELLPKVEEVVSLMNEDEKTVVRLQEKRQKELWNLLKIACSKVRGPVSGSPDSMNASRLSQPGQLMSQPSTASNSLPEPAKKSEELVAEAHNLCTLLENAIQDTVREQDQSFTALDWSWLQTEEEEHSCLEQAS,it was confirmed that human Regnase-1 is phosphorylated by IKKβ and TBK1
